In IntAct's records for PubMed 22990235:

B1: Mitochondrial intermembrane space import and assembly protein 40 (Saccharomyces cerevisiae), P36046 (parent)
chain: MLRNLVVRNACRNRPSIQVARGLCRHQTRRLMASSPQFGRNSNQEKTAGFIMGILSMAGALYFIAPNRKPLFASRKVESDKTAEEELSSGGEQSPENEDDNNSKSDENGDDNDSKNDETEAGPQLGGDKIGASKVAEDGELVVLAEEDNKSSEDKDTDESKVSTKDDEQSNEDNATANNQKDENISSENSEENTSDKTLDNNAGSSEKKDPEHSDDEKSQQGQSDDKTTTEDNNGEEESSKKTVSDSENSAKQSESSDEEKEELRKQEEKQMGPTEEEVQHEGAYNPDTGEINWDCPCLGGMAHGPCGEEFKSAFSCFVYSEAEPKGIDCVEKFQHMQDCFRKYPEHYAEQLKETSDDEEPQDKVKVNTIESAPNVSSAKENAAKKAEQSDVKKEPLNEESKP
partner: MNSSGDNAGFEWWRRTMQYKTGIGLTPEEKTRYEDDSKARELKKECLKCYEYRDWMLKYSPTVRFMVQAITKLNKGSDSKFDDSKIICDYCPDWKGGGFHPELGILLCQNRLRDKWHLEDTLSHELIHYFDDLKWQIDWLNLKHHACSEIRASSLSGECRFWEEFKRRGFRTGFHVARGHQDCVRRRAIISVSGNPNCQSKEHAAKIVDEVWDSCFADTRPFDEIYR

Variants of: B1
Conditions: with atp23_yeast ATP23, P53722

effect of a mutation on the interaction | Variant
decreasing interaction | MLRNLVVRNACRNRPSIQVARGLCRHQTRRLMASSPQFGRNSNQEKTAGFIMGILSMAGALYFIAPNRKPLFASRKVESDKTAEEELSSGGEQSPENEDDNNSKSDENGDDNDSKNDETEAGPQLGGDKIGASKVAEDGELVVLAEEDNKSSEDKDTDESKVSTKDDEQSNEDNATANNQKDENISSENSEENTSDKTLDNNAGSSEKKDPEHSDDEKSQQGQSDDKTTTEDNNGEEESSKKTVSDSENSAKQSESSDEEKEELRKQEEKQMGPTEEEVQHEGAYNPDTGEINWDCPCLGGMAHGPCGEEFKSAESCFVYSEAEPKGIDCVEKFQHMQDCFRKYPEHYAEQLKETSDDEEPQDKVKVNTIESAPNVSSAKENAAKKAEQSDVKKEPLNEESKP [F315E]
decreasing interaction | MLRNLVVRNACRNRPSIQVARGLCRHQTRRLMASSPQFGRNSNQEKTAGFIMGILSMAGALYFIAPNRKPLFASRKVESDKTAEEELSSGGEQSPENEDDNNSKSDENGDDNDSKNDETEAGPQLGGDKIGASKVAEDGELVVLAEEDNKSSEDKDTDESKVSTKDDEQSNEDNATANNQKDENISSENSEENTSDKTLDNNAGSSEKKDPEHSDDEKSQQGQSDDKTTTEDNNGEEESSKKTVSDSENSAKQSESSDEEKEELRKQEEKQMGPTEEEVQHEGAYNPDTGEINWDCPCLGGMAHGPCGEEFKSAFSCEVYSEAEPKGIDCVEKFQHMQDCFRKYPEHYAEQLKETSDDEEPQDKVKVNTIESAPNVSSAKENAAKKAEQSDVKKEPLNEESKP [F318E]
